The source of these data is US7230094B2, “Neutral sphingomyelinase antisense ribozyme and uses thereof” (priority 2001, dated 2007).

What all share (format): cell-based, human
Series [1] concerns MG-63 cells. Nature of the series: Cell viability by trypan blue staining. The note with it: ribozyme transfected cells, 24 hours, trypan blue, FIG. 8. On the procedure:
FIG. 8 depicts the effect of TNF-α on viability of wild type, ribozyme transfected and wild type/mock transfected cells. Cells ([…]) were seeded in 96 well sterile plastic trays. Upon confluence medium was replaced with serum free minimum essential medium and TNF-α (20 ng/ml). After incubation for 24 h at 37° C., viability of cells were determined by Trypan blue staining. The results represent ±S.D. of three experiments.
The population of viable cells was determined using trypan blue staining. Cells (10^4) were seeded in 96 well plates. Twenty-four hours later, the media was replaced with serum-free MEM, and TNF-α in various concentrations was added. After incubation for 24 hours at 37° C., the cells were trypsinized, and viable cells were counted after staining with trypan blue. Values were compared to the original cell count (10^4) and expressed as a percentage.

Series [2] concerns N-SMase. As to the kind of experiment: Immunocytochemical analysis of cells, N-SMase antibody. The note with it: clone CC compared to untransfected (WT) and sham-transfected (LacZ) lines. On the procedure: (§1) Wild-type (WT) MG-63 cells and MG-63 cells transfected with LacZ constructs (L-3) and ribozyme expression constructs for the inhibition of N-SMase expression (CC) were analyzed by immunocytochemistry. The antibodies either recognized epitopes in fibronectin (control) or N-SMase. The analysis was performed in duplicates for the MG-63 cell line and the two mutant colonies.

The subject of series [3] is N-SMase. As to the kind of experiment: Western immunoblot and densitometric analysis of N-SMase. The settings on record: mutant CC cells vs WT, FIG. 3. On the procedure: FIG. 3 depicts a western immunoblot assay and densitometric analysis of N-SMase. About 10 μg of partially purified N-SMase preparations from WT (MG-63) and mutant (CC) cells were solubilized and subjected to 7.5% polyacrylamide SDS gel electrophoresis. The proteins were then transferred to PVDF membranes and subjected to a western immunoblot assay employing an N-SMase antibody or β-actin antibody (control). The immunoreactive protein bands were then subjected to densitometric scanning.
Western immunoblot assay and densitometric analysis was used to quantify the level of N-SMase in WT and CC cells. About 10 μg of partially purified N-SMase preparations from WT (MG-63) and mutant (CC) cells were solubilized and subjected to 7.5% polyacrylamide SDS gel electrophoresis. The proteins were then transferred to PVDF membranes and subjected to a western immunoblot assay employing an N-SMase antibody. The immunoreactive protein bands were then subjected to densitometric scanning.

Series [4] deals with ceramide production by N-SMase. As to the kind of experiment: Ceramide level, modified diacylglycerol kinase assay. The note with it: for Production of ceramide in response to cytokine stimulation: ribozyme-transfected (N-SMase-deficient) cells compared to sham transfected cells, TNF-α 20 ng/ml or Fas-L 1 ng/ml, 24 hours.
The test system of another series is fibronectin. As to the kind of experiment: Immunocytochemical analysis of cells, fibronectin antibody (specificity control). The settings on record: lines harboring pU1/N-SMase vs pZeoSVLacZ vs untransfected cells. On the procedure: as §1
The test system of series [5] is N-SMase. Nature of the series: Neutral sphingomyelinase activity in cell extracts, [14C]sphingomyelin substrate. The note with it: for Neutral SMase activity: MG-63 WT 2.7, L-3 LacZ/sham 2.1. On the procedure: Confluent culture of cells were harvested, washed, and pellets lysed in buffer containing 0.1% Triton™ X-100, 25 mM Tris (pH 7.4) buffer, 5 mM EDTA, 1 mM phenylmethylsulfonylfluoride and 2 μg each of chymostatin, leupeptin, antipain, and pepstatin A. The activity levels of acid and neutral sphingomyelinase were measured in cell extracts (100 μg protein) in duplicate as described previously employing […] as the substrate.
Activities of A-SMase and N-SMase were also measured according to methods described in Chatterjee, S. and Ghosh, N. (1996) Glycobiology 6:303–311, incorporated herein by reference, with minor modifications. In brief, 5×10^6 MG63 cells were scraped from the culture plates, washed with PBS, and disrupted by repeated passage through a 25-gauge needle. Nuclei and cell debris were pelleted at 800×g for 5 min. Supernatant fluid was collected, and the protein concentration was measured using the Bio-Rad (Hercules, Calif.) protein detection kit. To measure SMase activity, 50 μg of protein was incubated for 90 min (the reaction was linear for up to 120 min) at 37° C. in buffer (200 μl final volume) containing 250 mM sodium acetate and 1 mM EDTA, pH 5.0, for A-SMase or 250 mM Tris-Cl, pH 7.4, with or without 6 mM MgCl2 for N-SMase, and 0.75 μl of [methyl-^14C]sphingomyelin (SM) (0.2 mCi/ml; 56.6 mCi/mmol). Radioactive phosphocholine produced from [^14C]SM was extracted with 800 μl of chloroform-methanol (2:1, vol/vol) and 100 μl of H2O. [^14C]phosphocholine in the aqueous phase was measured by scintillation counting.

Series [6] concerns MG-63 cells. As to the kind of experiment: Apoptosis by DAPI staining and counting of apoptotic cells. The note with it: for Apoptosis in response to TNF-α and Fas-L: cells with ribozyme-induced deficiency of N-SMase, TNF-α 20 ng/ml, Fas-L 1 ng/ml, 24 hr. On the procedure:
FIG. 6 depicts a quantitative analysis of the effects of TNF-α, C2-Ceramide and Fas-ligand on apoptosis in mutant (CC) and WT (MG-63) cells, as well as wild type/mock transfected cells. Cells were grown on glass cover slips and incubated for 24 hours with TNF-α (20 ng/ml), cell-permeable ceramide (C2-Ceramide) (10 ng/ml) or Fas-L (1 ng/ml). Cells were fixed and stained with DAPI and photographed at 50× magnification. Apoptotic cells were counted using a hemocytometer. The basal levels of apoptotic cells were: MG-63 (3%); L-3 (3%); and CC (2.8%). Errors bars indicate ±S.D. (N=2).
WT (MG-63), LacZ (L-3) and mutant (CC) cells were grown on glass cover slips and incubated for 24 hr with TNF-α (20 ng/ml), cell-permeable ceramide (C2-ceramide) (10 ng/ml) or Fas-L (1 ng/ml). Cells were fixed and stained with DAPI stain and photographed (50×). Apoptotic cells were counted using a hemocytometer and compared to total cell counts per field. Basal levels of apoptosis were 3% untransfected, 3% control transfection, and 2.8% ribozyme transfection.

B1: N-SMase ribozyme: U1 snRNA-derived hammerhead antisense ribozyme targeting N-SMase mRNA, expressed from vector pNSMRz; stably transfected MG63 clones CC and C-B (nucleic acid, listed as Homo sapiens)
chain: AUACUUACCUGGCAGGGGAGAUACCAUGAUCACGAAGGUGGUUUUCCCAGGGCGAGGCUUAUCCAUUGGCCUCCGGAUGUGCUGACCCCUGCGAUUUCCCCAAAUGUGGGAAACUCGACUGCAGAAUAUGUCAUCAUAUUGCCUGAUGAGUCCGUGAGGACGAAACCUCUUCACAUGAAAAAGUGGGGCUGCGUUCGCGCUUCCCCG
As for B1, in the series with MG-63 cells [1], the “Decline in viable cells over a wide range of TNF-α concentrations” value was “no significant decline”. The “Immunohistochemical staining for N-SMase” value with N-SMase [2] is “near absence”. The “Level of N-SMase by western immunoblot densitometry” value in the series with N-SMase [3] is “greatly reduced”. Also, the “Production of ceramide in response to cytokine stimulation” value is “substantially no change” in series [4] (listed as antisense ribozyme) and “severely reduced” in series [4] (listed as ribozyme). For the same molecule, the “Basal level of ceramide production” value in series [4] (ribozyme-transfected CC cells, 2.63 in MG-63 control cells) stood at 4.59 pmole/mg protein. Also, in the series with fibronectin, the “Immunohistochemical staining with monoclonal antibody to fibronectin” value is “No differences were observed”. The “Neutral SMase activity” value with N-SMase [5] (MG-63 clone C-B (ribozyme-transfected mutant), average of two batches) was found to be 1.0 nmol/mg protein/hr; in the series on N-SMase [5] (MG-63 clone CC (ribozyme-transfected mutant), average of two batches of cell pellets), 0.67 nmol/mg protein/hr. The “Reduction in N-SMase activity” value in the series with N-SMase [5] (ribozyme-transfected cells compared to sham-transfected and untransfected controls) is reported as “three-fold reduction”. Also, the “Basal level of apoptotic cells” value in the series on MG-63 cells [6] (CC (ribozyme transfection), DAPI, 3% untransfected, 3% control transfection) is reported as 2.8%. Besides, the “Apoptosis in response to TNF-α and Fas-L” value in the series on MG-63 cells [6] was “marked hyporesponsiveness”; in the series on MG-63 cells [6] (listed as antisense ribozyme), “not altered”; in the series with MG-63 cells [6] (listed as ribozyme), “marked resistance to apoptosis”.
